Among the data in publication PMC8669218 are dimer percent values, retold here.

In this experiment the target is extracellular domain of human DPP4 (residues 39-766), wild type (human), P27487. Briefly: nonreducing SDS-PAGE. The note with it: remark: other sources report otherwise.

B1: extracellular domain of human DPP4 (residues 39-766), wild type, P27487 39-766 (domain or fragment)
chain: SRKTYTLTDYLKNTYRLKLYSLRWISDHEYLYKQENNILVFNAEYGNSSVFLENSTFDEFGHSINDYSISPDGQFILLEYNYVKQWRHSYTASYDIYDLNKRQLITEERIPNNTQWVTWSPVGHKLAYVWNNDIYVKIEPNLPSYRITWTGKEDIIYNGITDWVYEEEVFSAYSALWWSPNGTFLAYAQFNDTEVPLIEYSFYSDESLQYPKTVRVPYPKAGAVNPTVKFFVVNTDSLSSVTNATSIQITAPASMLIGDHYLCDVTWATQERISLQWLRRIQNYSVMDICDYDESSGRWNCLVARQHIEMSTTGWVGRFRPSEPHFTLDGNSFYKIISNEEGYRHICYFQIDKKDCTFITKGTWEVIGIEALTSDYLYYISNEYKGMPGGRNLYKIQLSDYTKVTCLSCELNPERCQYYSVSFSKEAKYYQLRCSGPGLPLYTLHSSVNDKGLRVLEDNSALDKMLQNVQMPSKKLDFIILNETKFWYQMILPPHFDKSKKYPLLLDVYAGPCSQKADTVFRLNWATYLASTENIIVASFDGRGSGYQGDKIMHAINRRLGTFEVEDQIEAARQFSKMGFVDNKRIAIWGWSYGGYVTSMVLGSGSGVFKCGIAVAPVSRWEYYDSVYTERYMGLPTPEDNLDHYRNSTVMSRAENFKQVEYLLIHGTADDNVHFQQSAQISKALVDVGVDFQAMWYTDEDHGIASSTAHQHIYTHMSHFIKQCFSLP
modifications: here or on the partner: glycosylated (sites not given); glycosylated (sites not given)
B1 registered a dimer percent of 40.8%.
